From patent US12203932B2, “Genetically encoded biosensors” (Howard Hughes Medical Institute, priority 2011, dated 2025)

B1: wild-type YbeJ: E. coli glutamate-binding protein; SEQ ID NO:107 (protein, listed as Escherichia coli)
chain: MNAKIIASLAFTSMFSLSTLLNPAYAEEQEKALNFGIISTESQQNLKPQWTPFLQDMEKKLGVKVNAFFAPDYAGIIQGMRFNKVDIAWYGNLSAMEAVDRANGQVFAQTVAADGSPGYWSVLIVNKDSPINNLNDLLAKRKDLTFGNGDPNSTSGFLVPGYYVFAKNNISASDFKRTVNAGHETNALAVANKQVDVATNNTENLDKLKTSAPEKLKELKVIWKSPLIPGDPIVWRKNLSETTKDKIYDFFMNYGKTPEEKAVLERLGWAPFRASSDLQLVPIRQLALFKEMQSVKDNKGLNEQDKLAKTTAIQAQLDDLDRLNNALSAMSSVSKAVQ
B2: PfMBP: Pyrococcus furiosus maltotriose binding protein; SEQ ID NO:106 (protein, listed as Pyrococcus furiosus)
chain: MRRATYAFALLAILVLGVVASGCIGGGTTTPTQTSPATQPTTTQTPTQTETQAVECGSGKVVIWHAMQPNELEVFQSLAEEYMALCPEVEIVFEQKPNLEDALKAAIPTGQGPDLFIWAHDWIGKFAEAGLLEPIDEYVTEDLLNEFAPMAQDAMQYKGHYYALPFAAETVAIIYNKEMVSEPPKTFDEMKAIMEKYYDPANEKYGIAWPINAYFISAIAQAFGGYYFDDKTEQPGLDKPETIEGFKFFFTEIWPYMAPTGDYNTQQSIFLEGRAPMMVNGPWSINDVKKAGINFGVVPLPPIIKDGKEYWPRPYGGVKLIYFAAGIKNKDAAWKFAKWLTTSEESIKTLALELGYIPVLTKVLDDPEIKNDPVIYGFGQAVQHAYLMPKSPKMSAVWGGVDGAINEILQDPQNADIEGILKKYQQEILNNMQG

How the values were obtained:
[1] = Fluorescence response and titration of soluble EcYbeJ253-cpGFP sensors with glutamate; assay type: binding; conditions: soluble protein; read-out: Kd (affinity) for glutamate
Experimental: Several thousand variants were screened in semi-high-throughput fashion, measuring fluorescence intensity of clarified cell lysate in the absence and presence of 10 mM glutamate.

[2] = Thermal stability by circular dichroism (CD) of MBPs and MBP-cpGFP sensors; assay type: physicochemical; conditions: CD signal vs temperature
Experimental: Thermal stability of PfMBP171-cpGFP.L2FE was measured using circular-dichroism (CD) and compared to the original EcMBP and PfMBP binding proteins, along with cpGFP. Following the changes by means of CD allowed determination of whether different transitions happened in alpha, beta, or both kinds of structures.
Given that cpGFP is a beta barrel, strong transitions in the beta signal alone were associated with changes in this kind of structure. In the same way, transitions in both kinds of signals were associated with the binding protein structure. […] Also, the addition of maltose to EcMBP stabilized the protein by about 10° C.

Row | Molecule | Kd [1] | denaturation temperature / Tm of binding protein (component) [2]
1 | B1 | ~1000 nM | 
2 | B2 |  | ≥ 80 °C
